± gives the standard deviation of the averaged measurements.

This series concerns ATP. The series can be described thus: switch fluorescence ratio, 500 uM ATP over buffer (Cy3 cluster intensity, sum of 5 cycles each) (fold (ratio)); higher = stronger signal-on switching upon ATP binding; sequences stand for … in TCGTCGGCAGCGTCAGATGTGTATAAGAGACAGTTTTTTTTTTTTTTTTTTTTTTTTT…TC. To be noted: aptamer strand: ATP DNA aptamer (quencher-CACCTGGGGGAGTATTGCGGAGGAAGG + anchor), 100 nM annealed; ATP concentration: 500 uM. In a few lines: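 For every switch-domain sequence, the fluorescence ratio is the mean of per-cluster values, each being summed target-cycle Cy3 intensity over summed buffer-cycle Cy3 intensity. Clusters outside 100-1000 RFU were excluded. On a modified Illumina MiSeq flow-cell, the Cy3-labelled switching-strand clusters were annealed to 100 nM quencher-labelled ATP aptamer, imaged in selection buffer and then after 15 min with 500 uM ATP at 22 °C. Five such cycles were run, with NaOH stripping and re-annealing between them.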
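Note: ATP exposure 15 min at 22 °C before imaging.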

As for GTCCACCTAC, the switch fluorescence ratio turned out to be 1.38 ± 0.015.
Consider GTCCATCCCA, for which the switch fluorescence ratio was 1.001 ± 0.009.
As for GTCCCGACTT, the switch fluorescence ratio came out at 1.01 ± 0.013.
In the case of GTCCGGGGCT, the switch fluorescence ratio amounted to 1.04 ± 0.036.
GTCCGGGGGT: the switch fluorescence ratio came out at 1.07 ± 0.11.
Consider GTCCTTATTT, for which the switch fluorescence ratio was 1.08 ± 0.022.
As to GTCCTTGATA, the switch fluorescence ratio was 1.01 ± 0.024.
Next, GTCGAGGATG: 1.018 ± 0.0049; GTCGCGGGGT: 1.027 ± 0.0036; GTCGCTGTGG: 1.04 ± 0.0021.
GTCGGAGCGA: the switch fluorescence ratio is 1.83 ± 0.57.
As for GTCGGAGGGG, the switch fluorescence ratio turned out to be 0.982 ± 0.043.
GTCGGGAAGT: the switch fluorescence ratio came out at 0.958 ± 0.024.
Consider GTCGGGGCTG, for which the switch fluorescence ratio came out at 0.972 ± 0.049.
Take GTCGGGGGTG: the switch fluorescence ratio came to 0.983 ± 0.041.
On to GTCGGTTTTT, for which the switch fluorescence ratio was determined as 0.972 ± 0.022.
Regarding GTCGTGCGTA, the switch fluorescence ratio is 1.03 ± 0.099.
For GTCTAAATCG, the switch fluorescence ratio was 0.981 ± 0.015.
As to GTCTAAGGAA, the switch fluorescence ratio worked out at 0.993 ± 0.016.
Consider GTCTACATTG, for which the switch fluorescence ratio is 0.997 ± 0.01.
In the case of GTCTAGAAAG, the switch fluorescence ratio was found to be 0.985 ± 0.016.
For GTCTCGTTCC, the switch fluorescence ratio was 1.09 ± 0.14.
The figure for GTCTGAACGT is 0.995 ± 0.081.
GTCTGGCAGT: the switch fluorescence ratio amounted to 1.01 ± 0.043.
Turning to GTCTGTATGT, the switch fluorescence ratio amounted to 1.015 ± 0.0028.
The figure for GTCTGTGGGA is 0.9998 ± 0.0091; for GTCTGTTCGC it is 1.02 ± 0.085.
As to GTCTTATATT, the switch fluorescence ratio stood at 1.01 ± 0.06.
Turning to GTCTTCACGG, the switch fluorescence ratio amounted to 0.999 ± 0.01.
Consider GTCTTCATGG, for which the switch fluorescence ratio is 0.989 ± 0.02.
On to GTCTTTGTTA, for which the switch fluorescence ratio came to 1.01 ± 0.022.
With GTGAAAAATT, the switch fluorescence ratio turned out to be 0.9862 ± 0.0086.
GTGAAAGTTT: the switch fluorescence ratio worked out at 0.998 ± 0.062.
GTGAAATAGG: the switch fluorescence ratio amounted to 0.981 ± 0.014.
With GTGAAATTGT, the switch fluorescence ratio was 1.01 ± 0.034.
Turning to GTGAACGGCG, the switch fluorescence ratio worked out at 1.06 ± 0.014.
As to GTGAATGGGG, the switch fluorescence ratio amounted to 0.969 ± 0.042.
Consider GTGAATTGGG, for which the switch fluorescence ratio amounted to 1.03 ± 0.03.
Next, GTGACAGGGG: 1.05 ± 0.033; GTGACCCCTA: 1.13 ± 0.063.
Take GTGACGAGTG: the switch fluorescence ratio was 0.993 ± 0.047.
As for GTGACTCCGA, the switch fluorescence ratio stood at 1.78 ± 0.12.
With GTGACTTTGT, the switch fluorescence ratio amounted to 1 ± 0.023.
Consider GTGACTTTTA, for which the switch fluorescence ratio is 1.01 ± 0.035.
Next, GTGAGAGCAT: 1.05 ± 0.028; GTGAGAGGGT: 0.998 ± 0.029; GTGAGATATT: 0.989 ± 0.043.
On to GTGAGCATGT, for which the switch fluorescence ratio was found to be 1.01 ± 0.024.
The figure for GTGAGCGACG is 0.965 ± 0.027; for GTGAGGGAAC it is 0.9729 ± 0.0052; for GTGAGGGACG it is 0.999 ± 0.081.
With GTGAGGGTCG, the switch fluorescence ratio is 1.01 ± 0.011.
For the sequence GTGAGGTGCA, the switch fluorescence ratio came to 1.01 ± 0.052.
In the case of GTGAGTAAGC, the switch fluorescence ratio is 1 ± 0.0035.
GTGAGTCTGT: the switch fluorescence ratio worked out at 0.9891 ± 0.001.
As to GTGAGTTGGG, the switch fluorescence ratio was determined as 1.01 ± 0.014.
GTGATAAAGG: the switch fluorescence ratio was found to be 1.01 ± 0.03.
The figure for GTGATAAGGT is 1 ± 0.021.
In the case of GTGATAGATG, the switch fluorescence ratio came to 1.013 ± 0.01.
Next, GTGATCTATA: 0.99 ± 0.025; GTGATTCGGG: 0.972 ± 0.013; GTGATTGGCT: 0.978 ± 0.016.
Regarding GTGATTTATT, the switch fluorescence ratio turned out to be 0.988 ± 0.019.
On to GTGATTTTAT, for which the switch fluorescence ratio is 0.969 ± 0.028.
Consider GTGATTTTTT, for which the switch fluorescence ratio is 1.01 ± 0.019.
Take GTGCATGCGT: the switch fluorescence ratio worked out at 0.998 ± 0.03.
Consider GTGCCAGGAT, for which the switch fluorescence ratio worked out at 1.03 ± 0.052.
For the sequence GTGCCTGATG, the switch fluorescence ratio was 1.05 ± 0.046.
As to GTGCGAAATC, the switch fluorescence ratio came out at 1.25 ± 0.033.
In the case of GTGCGAACTT, the switch fluorescence ratio came out at 1.015 ± 0.0028.
GTGCGAGAAC: the switch fluorescence ratio is 1.01 ± 0.025.
With GTGCGAGAGC, the switch fluorescence ratio amounted to 1.01 ± 0.043.
As to GTGCGATTTA, the switch fluorescence ratio is 0.992 ± 0.034.
The figure for GTGCGCAGAA is 0.988 ± 0.015; for GTGCGCCGGT it is 1.02 ± 0.036.
GTGCGGTGGC: the switch fluorescence ratio was determined as 1.04 ± 0.038.
For GTGCTAAGAG, the switch fluorescence ratio is 0.969 ± 0.043.
In the case of GTGCTATAGT, the switch fluorescence ratio was 1.031 ± 0.0018.
Take GTGCTTAATT: the switch fluorescence ratio was 1 ± 0.05.
Turning to GTGCTTCGGT, the switch fluorescence ratio amounted to 0.948 ± 0.026.
In the case of GTGCTTTTTT, the switch fluorescence ratio worked out at 0.993 ± 0.013.
The figure for GTGGAACATT is 1.02 ± 0.049.
With GTGGAACGTA, the switch fluorescence ratio amounted to 0.976 ± 0.015.
On to GTGGAAGTCC, for which the switch fluorescence ratio was determined as 1 ± 0.022.
Next, GTGGAAGTGG: 1.02 ± 0.034; GTGGAATATT: 1.04 ± 0.063; GTGGACCGGA: 1.06 ± 0.012.
Regarding GTGGACTTGC, the switch fluorescence ratio is 0.973 ± 0.042.
Regarding GTGGATGGAC, the switch fluorescence ratio is 1.03 ± 0.022.
GTGGATTGGA: the switch fluorescence ratio amounted to 1.05 ± 0.024.
As for GTGGCAAAGA, the switch fluorescence ratio was 0.993 ± 0.023.
For the sequence GTGGCAAGTT, the switch fluorescence ratio is 0.97 ± 0.017.
As for GTGGCACG, the switch fluorescence ratio is 1.01 ± 0.025.
For GTGGCGAGGG, the switch fluorescence ratio turned out to be 0.996 ± 0.0078.
As for GTGGCGCGGA, the switch fluorescence ratio was determined as 0.959 ± 0.013.
On to GTGGCGGGGA, for which the switch fluorescence ratio is 1.02 ± 0.038.
As to GTGGCGGTG, the switch fluorescence ratio came out at 0.985 ± 0.014.
On to GTGGCTATCG, for which the switch fluorescence ratio came to 0.993 ± 0.025.
As to GTGGCTGCGT, the switch fluorescence ratio amounted to 0.9776 ± 0.0063.
Consider GTGGCTTGTG, for which the switch fluorescence ratio was found to be 1 ± 0.029.
In the case of GTGGGAATTT, the switch fluorescence ratio amounted to 0.9823 ± 0.0081.
In the case of GTGGGACGGG, the switch fluorescence ratio was 1.03 ± 0.056.
For the sequence GTGGGAGGCT, the switch fluorescence ratio came to 1 ± 0.024.
As for GTGGGATTT, the switch fluorescence ratio came to 0.995 ± 0.022.
On to GTGGGCTTGT, for which the switch fluorescence ratio is 0.979 ± 0.048.
Regarding GTGGGGAATC, the switch fluorescence ratio stood at 1.02 ± 0.082.
In the case of GTGGGGAGAG, the switch fluorescence ratio is 0.9602 ± 0.0078.
Turning to GTGGGGCACG, the switch fluorescence ratio came to 0.9933 ± 0.0095.
GTGGGGCAGC: the switch fluorescence ratio was found to be 0.945 ± 0.015.
On to GTGGGGCATT, for which the switch fluorescence ratio worked out at 0.9905 ± 0.0086.
Next, GTGGGGCGGT: 0.9832 ± 0.006.
With GTGGGGGAAT, the switch fluorescence ratio is 1 ± 0.011.
For the sequence GTGGGGGGAG, the switch fluorescence ratio is 1 ± 0.026.
As to GTGGGGGGCT, the switch fluorescence ratio turned out to be 0.984 ± 0.029.
With GTGGGGGGGA, the switch fluorescence ratio is 1.01 ± 0.023.
Take GTGGGGGGGG: the switch fluorescence ratio is 0.995 ± 0.038.
For the sequence GTGGGGGTAT, the switch fluorescence ratio came out at 1.05 ± 0.15.
For the sequence GTGGGGTATT, the switch fluorescence ratio was found to be 0.977 ± 0.028.
As to GTGGGGTCCG, the switch fluorescence ratio was 0.99 ± 0.046.
For GTGGGGTCGT, the switch fluorescence ratio is 0.926 ± 0.045.

Source of the values: the supplement of paper PMC10126150.
